Laboratory results: patent publication US20210308188A1, “CELL CLUSTER INCLUDING OLFACTORY NEURON OR PRECURSOR CELL THEREOF, AND METHOD FOR PRODUCING SAME” (SUMITOMO CHEMICAL COMPANY, LIMITED, priority 2018, published 2021)

Key:
[1] = test system: human ES cells; assay: Study for addition-concentration of BMP signaling pathway-activating substance in cell cluster production (Experiment 7); format: cell-based
Procedure: In Experiment 7, a study of cell cluster production efficiency was performed for concentration of the BMP signaling pathway-activating substance in step (2), using human ES cells. The same experimental manipulations as in Experiment 2 (see the upper section of FIG. 8) were performed, and the concentration of BMP4 in the medium in step (2) was set to 7 conditions of 0.025 nM, 0.1 nM, 0.25 nM, 0.5 nM, 1.5 nM, 5 nM, and addition-free control.
On day 28 after the start of suspension culturing, bright-field observation was performed with an inverted microscope.
In addition, evaluation was performed for the cell clusters formed by adding each concentration of BMP4 according to the following four stages: cell cluster in a form close to spherical, whose 80% or more of the entire circumference was covered with non-neural epithelial tissue part (Grade 1, example=FIG. 20A); cell cluster whose 40% to 80% of the entire circumference was covered with non-neural epithelial tissue part or cell cluster in a distorted form (Grade 2, example=FIG. 20B); cell cluster whose ratio of non-neural epithelial tissue parts in the surface of the cell cluster was 40% or less (Grade 3, example=FIG. 20C); and cell cluster in which no non-neural epithelial tissue part was formed (Grade 4, example=FIG. 20D). The evaluation was performed by bright-field observation with an inverted microscope. As a result, non-neural epithelial tissues were not observed under the culture condition without adding of BMP4, as shown in FIG. 20E. Under the culture conditions in which 0.5 nM or more BMP4 was added in step (2), the Grade 1 cell clusters in a form close to a sphere, whose 80% or more of the entire circumference was covered with the non-neural epithelial tissue parts, were formed with high efficiency.

[2] = test system: human iPS cells; assay: Study for time to add BMP signaling pathway-activating substance in cell cluster production (Experiment 11); format: cell-based; details: observed day 13
Procedure: In Experiment 11, study of cell cluster production efficiency was performed for time to add the BMP signaling pathway-activating substance, that is, the start time of step (2), by changing the time to add the BMP signaling pathway-activating substance from day 1 to day 6 after the start of suspension culturing, using human iPS cells. The experiments were performed in accordance with the procedures shown in the upper section of FIG. 25, and the same experimental manipulations as in Experiment 3 were performed except for those specifically indicated.
Maintenance-cultured human iPS cells were subjected to step (a), and then the human iPS cells dispersed into single cells were suspended into 100 μl of a serum-free medium in a non-cell-adhesive 96-well three-dimensional culture vessel (PrimeSurface 96 slit-well plate, MS-9096S, manufactured by Sumitomo Bakelite Co., Ltd.) to be 1×10^4 cells per well, and the cells were suspension-cultured under conditions of 37° C., 5% CO2. At the start of suspension culturing (day 0 after the start of suspension culturing, start of step (1)), Y27632 (final concentration 20 μM), IWP-2 (final concentration 2 μM) and SB-431542 (final concentration 1 μM) were added to the serum-free medium.
On any of days 1, 2, 3, 4, and 6 after the start of suspension culturing, a serum-free medium being free of Y27632 and containing IWP-2, SB-431542 and BMP4 was added at 100 μl per well (start of step (2)). BMP4 was added to the medium at 3 nM to be a final concentration in the well of 1.5 nM.
In addition, on day after the addition of a serum-free medium containing BMP4, the medium was half exchanged with a serum-free medium being free of Y27632 and BMP4 and containing SB-431542, K02288, FGF2, Heparin Sodium, and EGF (start of step (3c)). K02288, FGF2, Heparin Sodium, and EGF were added to the medium at 20 μM, 40 ng/ml, 20 μg/ml, and 40 ng/ml, respectively, to be final concentrations in the well were 10 μM, 20 ng/ml, 10 μg/ml, and 20 ng/ml. […]

B1: BMP4: BMP signaling pathway-activating substance, manufactured by R&D Systems (protein, UniProt P12644 293-408, looked up)
Bone morphogenetic protein 4: SPKHHSQRARKKNKNCRRHSLYVDFSDVGWNDWIVAPPGYQAFYCHGDCPFPLADHLNSTNHAIVQTLVNSVNSSIPKACCVPTELSAISMLYLDEYDKVVLKNYQEMVVEGCGCR
Which results are given for B1?
quality evaluation grade of cell clusters (circumference covered with non-neural epithelial tissue part) ([1]; 0.5 nM or more BMP4 added in step (2), day 28, formed with high efficiency): Grade 1 (cell cluster in a form close to spherical, whose 80% or more of the entire circumference was covered with non-neural epithelial tissue part); diameter of spherical cell clusters formed ([1]; all BMP4 concentrations (0.025 to 5 nM) in step (2), day 28 after start of suspension culturing, bright-field observation): around 600 μm; concentration of BMP4 added in step (2) at which Grade 1 cell clusters were formed with high efficiency ([1]; day 28, bright-field observation): ≥ 0.5 nM; formation of non-neural epithelial tissue on the surface of the cell aggregate ([2]; BMP4 1.5 nM added on any of days 1, 2, and 3 after start of suspension culturing): a non-neural epithelial tissue was formed on the surface of the cell aggregate; formation of cell aggregates having non-neural epithelial tissues on the surface with larger diameter ([2]; BMP4 1.5 nM added on day 2 after start of suspension culturing): most efficiently and stably formed; formation of non-neural epithelial tissue on the surface of the cell aggregates ([2]; BMP4 1.5 nM added on day 4 or 6 after start of suspension culturing): no formation of non-neural epithelial tissue was observed
